Experimental data from PMC5934362.

Assays:
Experiment in all cases: ITC; 308 K; 50 mM HEPES pH 7.5, 0.5 mM CaCl2, 0.5 mM TCEP; TrxADocScaA variant in the cell, titrated with 28 injections of 10 uL CohScaB5; single-site model
[1] = target: TrxADocScaA V662 + V666 double mutant (Ruminococcus flavefaciens FD-1)
[2] = target: TrxADocScaA V666A (Ruminococcus flavefaciens FD-1)
[3] = target: TrxADocScaA V662A (Ruminococcus flavefaciens FD-1)
[4] = target: TrxADocScaA V662 + V666 + V721 triple mutant (Ruminococcus flavefaciens FD-1)
[5] = target: TrxADocScaA H722A (Ruminococcus flavefaciens FD-1)
[6] = target: TrxADocScaA K670A (Ruminococcus flavefaciens FD-1)
[7] = target: TrxADocScaA wild type (dockerin of primary scaffoldin ScaA fused to N-terminal thioredoxin A) (Ruminococcus flavefaciens FD-1)
[8] = target: TrxADocScaA V721A (Ruminococcus flavefaciens FD-1)
[9] = target: TrxADocScaA V666 + V721 double mutant (Ruminococcus flavefaciens FD-1)
[10] = target: TrxADocScaA N661A (Ruminococcus flavefaciens FD-1)
[11] = target: TrxADocScaA N669A (Ruminococcus flavefaciens FD-1)
[12] = target: TrxADocScaA V662 + V721 double mutant (Ruminococcus flavefaciens FD-1)

TrxADocScaA wild type (dockerin of primary scaffoldin ScaA fused to N-terminal thioredoxin A) (Ruminococcus flavefaciens FD-1), sequence (main, as listed by the source): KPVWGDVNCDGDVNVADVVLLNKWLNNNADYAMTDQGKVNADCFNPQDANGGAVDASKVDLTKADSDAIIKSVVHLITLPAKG

- Ka [1]: 1.98e+07 M⁻¹
- dH [1]: -67.5 kcal/mol
- stoichiometry N [1]: 0.98
- Ka [2]: 4.07e+08 M⁻¹
- dH [2]: -56.6 kcal/mol
- stoichiometry N [2]: 1.02
- Ka [3]: 4.78e+08 M⁻¹
- dH [3]: -68.4 kcal/mol
- stoichiometry N [3]: 1.02
- Ka [4]: 291000 M⁻¹
- dH [4]: -64.8 kcal/mol
- stoichiometry N [4]: 1.04
- Ka [5]: 2.73e+08 M⁻¹
- dH [5]: -72.4 kcal/mol
- stoichiometry N [5]: 1
- Ka [6]: 3.67e+08 M⁻¹
- dH [6]: -75.1 kcal/mol
- stoichiometry N [6]: 1.02
- Ka [7]: 4.02e+08 M⁻¹
- dH [7]: -66.7 kcal/mol
- stoichiometry N [7]: 1.01
- Ka [8]: 5.1e+08 M⁻¹
- dH [8]: -48.7 kcal/mol
- stoichiometry N [8]: 0.95
- Ka [9]: 2.25e+07 M⁻¹
- dH [9]: -56.5 kcal/mol
- stoichiometry N [9]: 1.01
- Ka [10]: 2.64e+06 M⁻¹
- dH [10]: -82.5 kcal/mol
- stoichiometry N [10]: 0.98
- Ka [11]: 3.16e+08 M⁻¹
- dH [11]: -73.4 kcal/mol
- stoichiometry N [11]: 1.01
- Ka [12]: 6.24e+07 M⁻¹
- dH [12]: -64.3 kcal/mol
- stoichiometry N [12]: 1.08
Substance: RfCohScaB5 (fifth cohesin of adaptor scaffoldin ScaB), expressed alone with a C-terminal hexa-histidine tag (domain or fragment)
